Data on 1 molecule can be found in patent publication US20240116985A1, “STAPLED PEPTIDES AND METHODS THEREOF” (priority 2020, published 2024).

The target in test [1] is beta-catenin-Halo NanoBRET construct (Homo sapiens (Human)) (UniProt P35222). As to the kind of experiment: NanoBRET, Bcat-Halo/TCF4-Luc in HEK293 cells; peptide 5 uM; replicate 1; competitor TCF4-Luc. Background: In BRET a luciferase serves as donor, and the signal depends on an acceptor being close.
For test [2] the target is unchanged. As to the kind of experiment: NanoBRET, Bcat-Halo/TCF4-Luc in HEK293 cells; peptide 10 uM; replicate 2; competitor TCF4-Luc.
For test [3] the target is unchanged. As to the kind of experiment: NanoBRET, Bcat-Halo/TCF4-Luc in HEK293 cells; peptide 10 uM; replicate 3; competitor TCF4-Luc.
Test [4] shares this target. Description: NanoBRET, Bcat-Halo/TCF4-Luc in HEK293 cells; peptide 2.5 uM; replicate 1; competitor TCF4-Luc.
Test [5] shares this target. As to the kind of experiment: NanoBRET, Bcat-Halo/TCF4-Luc in HEK293 cells; peptide 2.5 uM; replicate 3; competitor TCF4-Luc.
Test [6] shares this target. As to the kind of experiment: NanoBRET, Bcat-Halo/TCF4-Luc in HEK293 cells; peptide 1.25 uM; replicate 3; competitor TCF4-Luc.
For test [7] the target is unchanged. As to the kind of experiment: NanoBRET, Bcat-Halo/TCF4-Luc in HEK293 cells; peptide 0.625 uM; replicate 3; competitor TCF4-Luc.
Test [8] addresses beta-catenin-Halo (NanoBRET construct expressed in HEK293 cells) (Homo sapiens (Human)) (UniProt P35222). Description: NanoBRET, HEK293 cells with Bcat-Halo and TCF4-Luc; plate row D (5 uM by plate map), plate column 6.
Test [9] has the same target. Description: NanoBRET, HEK293 cells with Bcat-Halo and TCF4-Luc; plate row D (5 uM by plate map), plate column 7.
Test [10] has the same target. As to the kind of experiment: NanoBRET, HEK293 cells with Bcat-Halo and TCF4-Luc; plate row C (10 uM by plate map), plate column 5.
Test [11] shares this target. Description: NanoBRET, HEK293 cells with Bcat-Halo and TCF4-Luc; plate row C (10 uM by plate map), plate column 6.
Test [12] shares this target. As to the kind of experiment: NanoBRET, HEK293 cells with Bcat-Halo and TCF4-Luc; plate row E (2.5 uM by plate map), plate column 5.
Test [13] has the same target. Description: NanoBRET, HEK293 cells with Bcat-Halo and TCF4-Luc; plate row E (2.5 uM by plate map), plate column 6.
For test [14] the target is unchanged. As to the kind of experiment: NanoBRET, HEK293 cells with Bcat-Halo and TCF4-Luc; plate row F (1.25 uM by plate map), plate column 7.
For test [15] the target is unchanged. Description: NanoBRET, HEK293 cells with Bcat-Halo and TCF4-Luc; plate row G (0.625 uM by plate map), plate column 7.
Test [16] addresses beta-catenin-Halo NanoBRET construct (Homo sapiens (Human)) (UniProt P35222). As to the kind of experiment: NanoBRET raw acceptor reading, Bcat-Halo/TCF4-Luc in HEK293 cells; plate row D (5 uM by plate map); competitor TCF4-Luc.
The target is the same in test [17]. As to the kind of experiment: NanoBRET raw acceptor reading, Bcat-Halo/TCF4-Luc in HEK293 cells; plate row F (1.25 uM by plate map); competitor TCF4-Luc.
Test [18] has the same target. As to the kind of experiment: NanoBRET raw acceptor reading, Bcat-Halo/TCF4-Luc in HEK293 cells; plate row G (0.625 uM by plate map); competitor TCF4-Luc.
Test [19] addresses full-length beta-Catenin (Uniprot ID P35222) (Homo sapiens (Human)) (UniProt P35222). Description: fluorescence polarization competition: peptide titrated against 10 nM full-length beta-catenin + 10 nM 5FAM-TCF4(10-53) probe. Background: Polarisation of emitted light reports the rotation of a fluorescent probe.

“And” between values parts separate entries of the source, which are not always exact repeats. Equal values may be shown once. Starred links: 1 amine or outer side, 2 acyl side, 3 side chain; linkers in the order of their positions; H or OH if unused. Positions of bridges follow the written chain, without caps; N, C: chain ends. Non-standard residues stand in square brackets, D forms with d. PyrS2 = (S)-3-amino-1-((pent-4-en-1-yloxy)carbonyl)pyrrolidine-3-carboxylic acid, C=CCCCOC(=O)N1CC[C@@](N[*:1])(C(=O)[*:2])C1; B5 = 2-amino-2-(pent-4-en-1-yl)hept-6-enoic acid, C=CCCCC(CCCC=C)(N[*:1])C(=O)[*:2]; Bta = N[C@@H](Cc1csc2ccccc12)C(=O)O; αAllylPro = C=CC[C@@]1(C(=O)O)CCCN1; tBuAla = CC(C)(C)C[C@H](N)C(=O)O; 3Thi = N[C@@H](Cc1ccsc1)C(=O)O

beta-catenin-Halo NanoBRET construct (Homo sapiens (Human)), sequence (P35222 whole entry): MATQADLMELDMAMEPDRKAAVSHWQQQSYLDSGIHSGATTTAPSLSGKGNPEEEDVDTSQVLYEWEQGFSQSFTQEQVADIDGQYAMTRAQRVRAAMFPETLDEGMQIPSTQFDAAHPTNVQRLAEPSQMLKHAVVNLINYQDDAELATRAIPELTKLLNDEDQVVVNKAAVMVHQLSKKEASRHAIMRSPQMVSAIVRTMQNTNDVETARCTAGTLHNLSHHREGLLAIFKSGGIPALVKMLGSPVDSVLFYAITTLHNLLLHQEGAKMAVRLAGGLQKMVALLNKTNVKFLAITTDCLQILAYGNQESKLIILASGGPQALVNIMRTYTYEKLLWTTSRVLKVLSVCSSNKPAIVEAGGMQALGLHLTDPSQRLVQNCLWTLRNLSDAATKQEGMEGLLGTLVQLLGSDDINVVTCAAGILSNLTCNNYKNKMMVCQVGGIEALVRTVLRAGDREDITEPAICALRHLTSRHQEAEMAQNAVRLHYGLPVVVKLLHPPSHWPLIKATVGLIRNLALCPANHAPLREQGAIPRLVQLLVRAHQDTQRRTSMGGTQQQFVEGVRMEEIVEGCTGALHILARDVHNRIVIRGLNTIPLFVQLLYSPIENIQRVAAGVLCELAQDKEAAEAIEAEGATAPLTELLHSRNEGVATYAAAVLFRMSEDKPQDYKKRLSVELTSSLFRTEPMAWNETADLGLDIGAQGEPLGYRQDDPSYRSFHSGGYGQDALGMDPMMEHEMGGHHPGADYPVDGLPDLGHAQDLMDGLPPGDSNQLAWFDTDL
beta-catenin-Halo (NanoBRET construct expressed in HEK293 cells) (Homo sapiens (Human)), sequence (P35222 whole entry): as above
full-length beta-Catenin (Uniprot ID P35222) (Homo sapiens (Human)), sequence (P35222 2-781 limits assumed): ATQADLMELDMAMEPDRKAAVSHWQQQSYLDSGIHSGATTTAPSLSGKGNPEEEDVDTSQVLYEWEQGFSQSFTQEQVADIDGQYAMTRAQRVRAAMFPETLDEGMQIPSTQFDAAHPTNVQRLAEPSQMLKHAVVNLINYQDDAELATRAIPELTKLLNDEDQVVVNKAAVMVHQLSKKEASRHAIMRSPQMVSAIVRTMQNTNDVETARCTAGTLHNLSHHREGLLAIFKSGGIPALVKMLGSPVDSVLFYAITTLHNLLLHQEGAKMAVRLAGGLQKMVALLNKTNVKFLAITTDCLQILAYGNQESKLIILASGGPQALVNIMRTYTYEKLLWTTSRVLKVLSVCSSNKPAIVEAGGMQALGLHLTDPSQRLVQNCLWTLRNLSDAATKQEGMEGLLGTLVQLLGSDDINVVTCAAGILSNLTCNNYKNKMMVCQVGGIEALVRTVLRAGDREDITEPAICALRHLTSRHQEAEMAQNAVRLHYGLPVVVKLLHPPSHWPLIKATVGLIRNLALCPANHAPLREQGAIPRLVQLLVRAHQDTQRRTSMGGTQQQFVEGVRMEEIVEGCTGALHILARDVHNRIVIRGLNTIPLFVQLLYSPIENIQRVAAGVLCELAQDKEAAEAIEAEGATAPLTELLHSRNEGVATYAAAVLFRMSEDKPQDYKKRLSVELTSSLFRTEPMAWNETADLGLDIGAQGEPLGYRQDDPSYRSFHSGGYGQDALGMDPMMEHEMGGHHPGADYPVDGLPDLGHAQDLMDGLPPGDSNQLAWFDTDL

B1: I-797 (peptide)
peptide: Ac-[αAllylPro]F[tBuAla][B5]DDAADN[PyrS2][3Thi][Bta]Q-NH2
modifications: staple 1-4, 4-11
With B1, the % Inhibition (in general, the change of the read-out against control, counted positive when it falls) in test [1] was -16.9%; in test [2], -21.9%; in [3], 1.7%; in test [4], -21.3%; in [5], -11.7%; in [6], -4%. Also, the % Inhibition in test [7] turned out to be 8.3%. Further, the NanoBRET donor emission 450 BP (raw reading) in test [8] was found to be 29900; in test [9], 47500; in test [10], 58500; in test [11], 25900; in test [12] it was 34100; in test [13], 22700. Further, the values for the NanoBRET donor emission 450 BP (raw reading) in test [14] and in test [15] were 71100 and 47600, respectively. Further, the Acceptor 600 LP emission in test [16] is 510 and 420 and 630; in test [17], 300 and 410 and 860; in [18] it was 410 and 440 and 530. Further, in test [19], the EC50 (in general, the midpoint of the concentration-response curve) is 10 µM.
